Patent US20110059889A1 (SYNTONIX PHARMACEUTICALS, published 2011)
Like-named read-outs stand apart in the source and are kept apart here. Bridge positions count the residues as written; N and C are the ends. Square brackets hold non-standard residues; d marks the D form. Ends that are not written are not given here. Phe(F5) = N[C@@H](Cc1c(F)c(F)c(F)c(F)c1F)C(=O)O; Phe(3-Me) = Cc1cccc(C[C@H](N)C(=O)O)c1; Phe(4-Me) = Cc1ccc(C[C@H](N)C(=O)O)cc1; NMeL = CN[C@@H](CC(C)C)C(=O)O; Pen = CC(C)(S)[C@H](N)C(=O)O; hCys = N[C@@H](CCS)C(=O)O; Sar = CNCC(=O)O

B1: Peptide No. 34 (peptide)
peptide: QRF[Pen]TGHFGGLYP[Pen]NGP-NH2
modifications: disulfide 4-14; N-terminus assumed
SMILES: CC(C)C[C@@H]1NC(=O)CNC(=O)CNC(=O)[C@H](Cc2ccccc2)NC(=O)[C@H](Cc2c[nH]cn2)NC(=O)CNC(=O)[C@H]([C@@H](C)O)NC(=O)[C@@H](NC(=O)[C@H](Cc2ccccc2)NC(=O)[C@H](CCCNC(=N)N)NC(=O)[C@@H](N)CCC(N)=O)C(C)(C)SSC(C)(C)[C@@H](C(=O)N[C@@H](CC(N)=O)C(=O)NCC(=O)N2CCC[C@H]2C(N)=O)NC(=O)[C@@H]2CCCN2C(=O)[C@H](Cc2ccc(O)cc2)NC1=O
B2: Peptide No. 59 (peptide)
peptide: QRFCTGHXGGLYPCNGP
modifications: Pen 4; 3-PyridylAla 8; disulfide 4-14; C-terminal amide
B3: Peptide No. 28 (peptide)
peptide: QRF[hCys]TGHFGGLYP[hCys]NGP-NH2
modifications: disulfide 4-14; N-terminus assumed
SMILES: CC(C)C[C@@H]1NC(=O)CNC(=O)CNC(=O)[C@H](Cc2ccccc2)NC(=O)[C@H](Cc2c[nH]cn2)NC(=O)CNC(=O)[C@H]([C@@H](C)O)NC(=O)[C@@H](NC(=O)[C@H](Cc2ccccc2)NC(=O)[C@H](CCCNC(=N)N)NC(=O)[C@@H](N)CCC(N)=O)CCSSCC[C@@H](C(=O)N[C@@H](CC(N)=O)C(=O)NCC(=O)N2CCC[C@H]2C(N)=O)NC(=O)[C@@H]2CCCN2C(=O)[C@H](Cc2ccc(O)cc2)NC1=O
B4: Peptide No. 62 (peptide)
peptide: QRFCTGHXGGLYPCNGP
modifications: Pen 4; 2-napthylalanine 8; disulfide 4-14; C-terminal amide
B5: Peptide No. 89 (peptide)
peptide: QRF[Pen]TGH[Phe(3-Me)]GGLYPCNGP-NH2
modifications: disulfide 4-14; N-terminus assumed
SMILES: Cc1cccc(C[C@@H]2NC(=O)[C@H](Cc3c[nH]cn3)NC(=O)CNC(=O)[C@H]([C@@H](C)O)NC(=O)[C@@H](NC(=O)[C@H](Cc3ccccc3)NC(=O)[C@H](CCCNC(=N)N)NC(=O)[C@@H](N)CCC(N)=O)C(C)(C)SSC[C@@H](C(=O)N[C@@H](CC(N)=O)C(=O)NCC(=O)N3CCC[C@H]3C(N)=O)NC(=O)[C@@H]3CCCN3C(=O)[C@H](Cc3ccc(O)cc3)NC(=O)[C@H](CC(C)C)NC(=O)CNC(=O)CNC2=O)c1
B6: Peptide No. 295 (peptide)
peptide: QRF[Pen]TGHFG[dP]LYP[Pen]NGP-NH2
modifications: disulfide 4-14; N-terminus assumed
SMILES: CC(C)C[C@@H]1NC(=O)[C@H]2CCCN2C(=O)CNC(=O)[C@H](Cc2ccccc2)NC(=O)[C@H](Cc2c[nH]cn2)NC(=O)CNC(=O)[C@H]([C@@H](C)O)NC(=O)[C@@H](NC(=O)[C@H](Cc2ccccc2)NC(=O)[C@H](CCCNC(=N)N)NC(=O)[C@@H](N)CCC(N)=O)C(C)(C)SSC(C)(C)[C@@H](C(=O)N[C@@H](CC(N)=O)C(=O)NCC(=O)N2CCC[C@H]2C(N)=O)NC(=O)[C@@H]2CCCN2C(=O)[C@H](Cc2ccc(O)cc2)NC1=O
B7: Peptide No. 90 (peptide)
peptide: QRF[Pen]TGH[Phe(4-Me)]GGLYPCNGP-NH2
modifications: disulfide 4-14; N-terminus assumed
SMILES: Cc1ccc(C[C@@H]2NC(=O)[C@H](Cc3c[nH]cn3)NC(=O)CNC(=O)[C@H]([C@@H](C)O)NC(=O)[C@@H](NC(=O)[C@H](Cc3ccccc3)NC(=O)[C@H](CCCNC(=N)N)NC(=O)[C@@H](N)CCC(N)=O)C(C)(C)SSC[C@@H](C(=O)N[C@@H](CC(N)=O)C(=O)NCC(=O)N3CCC[C@H]3C(N)=O)NC(=O)[C@@H]3CCCN3C(=O)[C@H](Cc3ccc(O)cc3)NC(=O)[C@H](CC(C)C)NC(=O)CNC(=O)CNC2=O)cc1
B8: Peptide No. 218 (peptide)
peptide: RF[Pen]TGHF[dV][Sar][NMeL]YPC-NH2
modifications: disulfide 3-13; N-terminus assumed
SMILES: CC(C)C[C@H]1C(=O)N[C@@H](Cc2ccc(O)cc2)C(=O)N2CCC[C@H]2C(=O)N[C@H](C(N)=O)CSSC(C)(C)[C@H](NC(=O)[C@H](Cc2ccccc2)NC(=O)[C@@H](N)CCCNC(=N)N)C(=O)N[C@@H]([C@@H](C)O)C(=O)NCC(=O)N[C@@H](Cc2c[nH]cn2)C(=O)N[C@@H](Cc2ccccc2)C(=O)N[C@H](C(C)C)C(=O)N(C)CC(=O)N1C
B9: Peptide No. 219 (peptide)
peptide: RF[Pen]TGHF[dL][Sar][NMeL]YPC-NH2
modifications: disulfide 3-13; N-terminus assumed
SMILES: CC(C)C[C@H]1NC(=O)[C@H](Cc2ccccc2)NC(=O)[C@H](Cc2c[nH]cn2)NC(=O)CNC(=O)[C@H]([C@@H](C)O)NC(=O)[C@@H](NC(=O)[C@H](Cc2ccccc2)NC(=O)[C@@H](N)CCCNC(=N)N)C(C)(C)SSC[C@@H](C(N)=O)NC(=O)[C@@H]2CCCN2C(=O)[C@H](Cc2ccc(O)cc2)NC(=O)[C@H](CC(C)C)N(C)C(=O)CN(C)C1=O
B10: Peptide No. 70 (peptide)
peptide: QRF[hCys]TGHFGGLYP[Pen]NGP-NH2
modifications: disulfide 4-14; N-terminus assumed
SMILES: CC(C)C[C@@H]1NC(=O)CNC(=O)CNC(=O)[C@H](Cc2ccccc2)NC(=O)[C@H](Cc2c[nH]cn2)NC(=O)CNC(=O)[C@H]([C@@H](C)O)NC(=O)[C@@H](NC(=O)[C@H](Cc2ccccc2)NC(=O)[C@H](CCCNC(=N)N)NC(=O)[C@@H](N)CCC(N)=O)CCSSC(C)(C)[C@@H](C(=O)N[C@@H](CC(N)=O)C(=O)NCC(=O)N2CCC[C@H]2C(N)=O)NC(=O)[C@@H]2CCCN2C(=O)[C@H](Cc2ccc(O)cc2)NC1=O
B11: Peptide No. 57 (peptide)
peptide: QRF[Pen]TGH[Phe(F5)]GGLYPCNGP-NH2
modifications: disulfide 4-14; N-terminus assumed
SMILES: CC(C)C[C@@H]1NC(=O)CNC(=O)CNC(=O)[C@H](Cc2c(F)c(F)c(F)c(F)c2F)NC(=O)[C@H](Cc2c[nH]cn2)NC(=O)CNC(=O)[C@H]([C@@H](C)O)NC(=O)[C@@H](NC(=O)[C@H](Cc2ccccc2)NC(=O)[C@H](CCCNC(=N)N)NC(=O)[C@@H](N)CCC(N)=O)C(C)(C)SSC[C@@H](C(=O)N[C@@H](CC(N)=O)C(=O)NCC(=O)N2CCC[C@H]2C(N)=O)NC(=O)[C@@H]2CCCN2C(=O)[C@H](Cc2ccc(O)cc2)NC1=O
B12: Peptide No. 27 (peptide)
peptide: QRFCTGHFGGLYP[hCys]NGP-NH2
modifications: disulfide 4-14; N-terminus assumed
SMILES: CC(C)C[C@@H]1NC(=O)CNC(=O)CNC(=O)[C@H](Cc2ccccc2)NC(=O)[C@H](Cc2c[nH]cn2)NC(=O)CNC(=O)[C@H]([C@@H](C)O)NC(=O)[C@@H](NC(=O)[C@H](Cc2ccccc2)NC(=O)[C@H](CCCNC(=N)N)NC(=O)[C@@H](N)CCC(N)=O)CSSCC[C@@H](C(=O)N[C@@H](CC(N)=O)C(=O)NCC(=O)N2CCC[C@H]2C(N)=O)NC(=O)[C@@H]2CCCN2C(=O)[C@H](Cc2ccc(O)cc2)NC1=O

How the values were obtained:
[1] = target: T1, soluble human FcRn (shFcRn) (human, UniProt P55899 24-297; P61769 21-119); assay: IgG competition ELISA
T1 construct: Biotinylated for the ELISA, amine-coupled to a CM5 chip for SPR; also called biotinylated shFcRn
Method: (§1) The wells were coated with 100 μl/well of 1 μg/ml biotinylated-shFcRn in Buffer A. The plate was sealed and incubated at 37° C. for 2 hours. Afterwards, the plate was washed with 200 μl/well of Buffer B (Buffer B: 100 mM MES pH 6, 150 mM NaCl, 0.5% BSA IgG-free (Jackson ImmunoResearch, West Grove, Pa.), 0.05% Tween-20). […] To allow for mixing, the plate was rocked for 2 minutes, sealed and incubated at 37° C. for 2 hours. […] The plate was covered, incubated for 30 minutes at room temperature and washed 4 times with 200 μl/well of ice-cold buffer B. SureBlue TMB substrate solution (100 μl/well, KPL, Gaithersburg, Md.) was added and the plate was allowed to incubate at room temperature until color developed, which took 5 to 10 minutes. Once color developed, 100 μl/well of TMB stop solution (KPL, Gaithersburg, Md.) was added and the absorbance was measured at 450 nm. The data was plotted as absorbance vs. peptide concentration to derive the inhibitory concentration 50% (IC₅₀) values.

[2] = target: T1, soluble human FcRn (shFcRn); assay: SPR pH 6
Method: (§2) The following steps were performed to cross-link soluble human or cynomolgus FcRn to the dextran surface of a CM5 sensor chip (Biacore AB, Uppsala, Sweden) by an amine coupling reaction involving 1-ethyl-(3-dimethylaminopropyl)-carbodiimide hydrochloride (EDC) (Biacore AB, Uppsala, Sweden) and N-hydroxysuccinimide (NHS) (Biacore AB, Uppsala, Sweden) as recommended by Biacore (BIAapplications Handbook, version AB, section 4.2, Biacore AB, Uppsala, Sweden). […] Residual sites on the FcRn flow cell were blocked with 1 M ethanolamine hydrochloride pH 8.5 (Biacore AB, Uppsala, Sweden). A control flow cell was blocked with ethanolamine for reference subtraction. For analysis of the monomeric peptides, FcRn was coated to a final density of 4000-5000 response units (RU). For analysis of the peptide dimers, FcRn was coated to a density of 2000-2500 RU. All SPR measurements were performed using a BIACORE 3000 Instrument (Biacore AB Uppsala, Sweden). For measurements done at either pH 6 or pH 7.4, experiments were performed in 50 mM phosphate, 100 mM sodium chloride, 0.01% surfactant P20 (Biacore AB, Uppsala, Sweden).
(§3) Ten, 2-fold dilutions of the peptide were injected over the FcRn-CM5 chip at a rate of 20 μl/min for 2 min. The peptide was dissociated from the chip for 2.5 minutes with buffer. Any remaining peptide was removed from the chip with a 30 second injection of HBS-P buffer (Biacore AB, Uppsala, Sweden) at a rate of 30 μl/min. Sensorgrams were generated and analyzed using BiaEval software version 3.1 (Biacore AB, Uppsala, Sweden). The equilibrium RU observed for each injection was plotted against concentration. The equilibrium KD values were derived by analysis of the plots using the steady state affinity model included in the BiaEval software.

[3] = target: T1, soluble human FcRn (shFcRn); assay: SPR pH 6; remark: listed apart in the source
Method: as §2, §3

[4] = target: T1, soluble human FcRn (shFcRn); assay: IgG competition ELISA; remark: listed apart in the source
[5] = target: T1, soluble human FcRn (shFcRn); assay: IgG competition ELISA; remark: listed apart in the source
Method: as §1

[6] = target: T1, soluble human FcRn (shFcRn); assay: SPR pH 6; remark: listed apart in the source
Method: as §2, §3

T1 sequence (P55899 24-297 limits assumed, chain 1 of 2): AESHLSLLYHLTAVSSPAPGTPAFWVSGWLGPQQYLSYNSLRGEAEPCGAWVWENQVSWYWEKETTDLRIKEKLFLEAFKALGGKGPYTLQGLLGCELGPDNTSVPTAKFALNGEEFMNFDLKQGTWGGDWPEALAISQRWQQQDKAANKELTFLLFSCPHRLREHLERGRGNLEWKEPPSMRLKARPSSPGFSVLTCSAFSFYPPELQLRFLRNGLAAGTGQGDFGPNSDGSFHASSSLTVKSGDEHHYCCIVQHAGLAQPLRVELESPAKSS
T1 sequence (P61769 21-119 limits assumed, chain 2 of 2): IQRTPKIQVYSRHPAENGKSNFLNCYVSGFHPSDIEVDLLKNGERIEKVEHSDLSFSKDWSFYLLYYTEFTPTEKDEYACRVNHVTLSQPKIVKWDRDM

Binder	IC50 [1] [µM]	Kd [2] [µM]	Kd [3] [µM]	also measured
B1	2	0.37		
B2			19	IC50 [4]: 60 µM
B3	20	3.8		
B4			11	IC50 [4]: 90 µM
B5			0.67	IC50 [4]: 4.1 µM
B6	1.6	0.28		
B7			0.2	
B8				IC50 [5]: > 50 µM
B9				IC50 [5]: 4 µM; Kd [6]: 0.47 µM
B10		2.1		
B11			70	
B12	21	3.9		
